Test results from the supplement of paper PMC9732359.
± gives the uncertainty stated by the source.

experiment: protein stability index of a GFP-peptide fusion (yeast GPS) (PSI 1-4); higher = more stable; sorted into four equal gates, so the index is relative within each strain; conditions: doa10∆
Outline: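 Peptides tiling yeast proteins in 17-residue segments were fused downstream of GFP, with Cherry expressed from the same plasmid. As a pooled library in yeast, mid-log cultures grown in leucine-free medium were sorted into four equal gates by GFP/Cherry fluorescence ratio. Gate plasmids were PCR-amplified and Illumina-sequenced, and barcodes linked reads to strains. Each peptide received a protein stability index equal to the sum of each gate's read frequency times its gate number.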

Point of comparison: LIVRAKNHTHNLPGNIT [RRP4], protein stability index 2.77 ± 0.071. Against it:
- LADYIVEVLLVNYNSDM [NUT1] — lower, 1.28 ± 0.047
- LAELINMTTIADRNDDD [SRB6] — within error, 2.73 ± 0.066
- LAPSKHQPITSEQKMKE [SIR4] — lower, 2.31 ± 0.077
- LARDTPSANNSSSIKST [RRP4] — within error, 2.86 ± 0.076
- LARHLPAELDLRGSLLS [RPC82] — higher, 3.04 ± 0.12
- LASNFDNFDYFNQRDGE [MED1] — higher, 3.3 ± 0.08
- LATNSLVEEFMLLANIS [DIS3] — lower, 1.39 ± 0.095
- LCLTEFENCYLEGNDIH [FAS1] — higher, 3.02 ± 0.089
- LDGDRADKRGVLTGGYL [SMC3] — within error, 2.93 ± 0.2
- LDPLEMEGNAQPVNFNR [RPO31] — higher, 3.37 ± 0.09
- LDRISSYTAFSRLTLLL [PRP8] — lower, 1.86 ± 0.047
- LDRRFEIFFKKDSLWQS [FAS1] — higher, 3.15 ± 0.13
- LDTLPSEFDSRVKAMEV [RPT5] — higher, 2.93 ± 0.085
- LEDELYHTNPGHSQFTS [RPN4] — higher, 3.34 ± 0.11
- LEDMVFPTEIVGKRVRY [RPS7B] — lower, 1.57 ± 0.16
- LEDQQRQQKLLLETKLR [SWI1] — within error, 2.81 ± 0.12
- LEFRWLTSSKSVIVSQF [SIN4] — lower, 1.73 ± 0.056
- LEKDAADCQAELTKTKS [YIL149C/MLP2] — within error, 2.94 ± 0.13
- LELPLCPYCYKKRREYF [SIR2] — lower, 2.46 ± 0.053
- LELTTGATYRGKLVESE [SMD3] — higher, 3.29 ± 0.079
- LENQKDLVIVDENELKK [MTW1] — higher, 3.65 ± 0.23
- LEPFLLMLEDTDGDSIL [BRR2] — within error, 2.71 ± 0.071
- LEQVEFEKNTILQQRSK [MED4] — within error, 2.94 ± 0.22
- LERTDLKSKVIDSPELL [RPN7] — higher, 3.17 ± 0.073
- LESEIASSSAKLIEKKS [SMC2] — within error, 2.69 ± 0.072
- LESYKTQAKKLYHHTTK [SRP72] — lower, 2.29 ± 0.068
- LETEQLSSELDSNKTLL [SMC2] — higher, 3.35 ± 0.071
- LEVGRRFSPDEDFEHNN [MCD1] — higher, 3.26 ± 0.15
- LFEIVSNADTNQNSDMK [SRB8] — within error, 2.51 ± 0.29
- LFEQIGIRIKGKIVGFD [SME1] — lower, 1.92 ± 0.12
- LFEQLQTVSNKEDAKAT [SRP54] — higher, 3.41 ± 0.14
- LFGSPPFILEYDLMAPN [YMR129W/POM152] — within error, 2.74 ± 0.075
- LFGSSNNNNNNNNSNNI [YGL172W/NUP49] — higher, 2.93 ± 0.077
- LFKYQGHIGAYLIVAGV [PUP1] — lower, 1.66 ± 0.067
- LFQTIEKLINNSDDCMM [ECM29] — higher, 3.1 ± 0.083
- LFSLLELGEQKCQELVT [RRP46] — lower, 1.97 ± 0.061
- LFSPEEVRAISVAKIRF [RPO21] — lower, 2.17 ± 0.1
- LFVFTEGWPKFQDTLYK [QCR10] — higher, 3.21 ± 0.19
- LFVISTEISPMAGSQFE [RRP45] — lower, 1.89 ± 0.08
- LGFEVKDQALIGTINSI [SIR2] — lower, 2.12 ± 0.051
- LGLEYIIRLLPINLENN [SRB8] — lower, 1.67 ± 0.07
- LGPRGVSITPGKIEKIA [SRP21] — lower, 2.02 ± 0.065
- LGQLYVTMGAKDKLREF [RPN6] — higher, 3.33 ± 0.12
- LGSHSSSQKDGNDFKFN [REC8] — higher, 3.25 ± 0.07
- LGVPRIKEIINASKVIS [RPO31] — higher, 3.03 ± 0.1
- LHKRLHGVSFKKRAPRA [RPL31A] — within error, 2.9 ± 0.12
- LHLANEHGLQITHTENY [BRN1] — within error, 2.71 ± 0.13
- LIALSLIMALLQFRPAP [SMC2] — lower, 1.62 ± 0.029
- LIARRDDESPRFVMPNQ [RRP6] — higher, 3.27 ± 0.082
- LICSIGLHSSEYKLRSL [ECM29] — lower, 2.03 ± 0.046
- LIEILRLRALQLYFQKN [RRI2] — lower, 1.17 ± 0.049
- LIEKEIQPKITELKKKL [SMC1] — higher, 3.02 ± 0.1
- LIENCKKRNMPLQSIPE [SWI1] — within error, 2.86 ± 0.068
- LIEPLPTESYLQYIIHD [BRR2] — lower, 2.42 ± 0.083
- LIESGIGTHHAGLTRSD [BRR2] — higher, 3.31 ± 0.095
- LIIIAANTPVLRKSELE [RPL30] — lower, 2.2 ± 0.11
- LIIKYQKYWESMRIQIL [GAL11] — lower, 1.49 ± 0.064
- LINDSYINDVHLLYPPH [SSN8] — higher, 3.29 ± 0.058
- LINIDTSIANAFRRIMI [RPC40] — lower, 2.28 ± 0.043
- LINLAKTRVGSVTAQVY [RPC82] — lower, 2.41 ± 0.096
- LIQDLLHRLTPKNVKGE [RPN1] — higher, 3.44 ± 0.25
- LIQKLQNSANNNSDDED [IRR1] — higher, 2.98 ± 0.1
- LIQLGVKPLESSAKRSK [SRP72] — higher, 3.11 ± 0.073
- LIQSYSLLDKPDEAIEK [FAS1] — within error, 2.82 ± 0.087
- LKCAERQLTSMEFSNLY [NUT1] — lower, 2.06 ± 0.054
- LKEPVEDIIKRTSPIDN [NUT2] — higher, 2.97 ± 0.083
- LKHVLQLIFRQQTGLVD [SNU114] — lower, 1.23 ± 0.075
- LKIQFILSTTLDPTDDE [SIN4] — lower, 2.04 ± 0.1
- LKIYKVGDIVDIKANGS [RPL21B] — lower, 2.18 ± 0.058
- LKKDIESLRGILHVRAQ [SRP72] — lower, 1.9 ± 0.1
- LKKFRESLVHSALCILK [BRR2] — higher, 3.21 ± 0.12
- LKKGEQKTQELNAKYQS [ISW2] — higher, 3.31 ± 0.063
- LKKIRAHRGIRHFWGLR [RPS18A] — higher, 3.03 ± 0.11
- LKKQLHVSHEAMREVND [YIL149C/MLP2] — the same, 2.77 ± 0.066
- LKLCVQELEKRMPMDFK [PRE1] — higher, 3.15 ± 0.19
- LKMMKLIVDTHVQFRLG [PRP8] — lower, 2.53 ± 0.08
- LKRNRIRNARSIRAEAV [POP1] — lower, 1.71 ± 0.15
- LKSESATSQYLKQDLKK [YGL172W/NUP49] — within error, 2.81 ± 0.079
- LKSKVIDSPELLSLIST [RPN7] — lower, 2.48 ± 0.038
- LKSPVLSKLCVPVANQF [QCR7] — lower, 2.22 ± 0.053
- LKTEAANVLDPSLRKLI [BRR2] — lower, 2.44 ± 0.052
- LKWSACTSLMDIIVAIK [IRR1] — within error, 2.65 ± 0.14
- LLAEYDNIYRNLQKIDK [MED4] — lower, 2.4 ± 0.048
- LLAKRLSERKAEKAEIR [RPS6A] — higher, 3.35 ± 0.092
- LLCALDRKDQDDRDHFG [RPB2] — higher, 3.22 ± 0.096
- LLERGRLRKRVTIIPLD [SMC2] — lower, 2.25 ± 0.06
- LLETKLRQQYEIELKKL [SWI1] — higher, 3.01 ± 0.12
- LLFINSSKLVDVYTLPS [YML103C/NUP188] — lower, 1.97 ± 0.043
- LLFWTDPRNLVNQTGST [YCG1] — lower, 2.41 ± 0.065
- LLGIDATVPSGRPETYI [RPO31] — within error, 2.71 ± 0.15
- LLGKDNEDDALIYGISD [AAR2] — higher, 3.22 ± 0.12
- LLGPTLEDHTPPEDKPN [QCR10] — lower, 2.5 ± 0.057
- LLHSKPSLLLQKDQDGR [NAS6] — higher, 3.22 ± 0.22
- LLIHRKGLTYLHLDYNF [PRP8] — lower, 1.77 ± 0.043
- LLLRCDDRVDKKFVSQI [POP3] — higher, 3.27 ± 0.11
- LLLSPDQWYCIDKLEDL [ITC1] — higher, 3.06 ± 0.11
- LLPTIKRTICKKCHRLL [RPR2] — lower, 2.32 ± 0.065
- LLQLIQSQPQEKFSEKM [ECM29] — lower, 2.49 ± 0.098
- LLRYGGAFTIALAYAGT [RPN2] — lower, 2.02 ± 0.084
- LLSENRSEKSTTNAQTK [SRP54] — within error, 2.86 ± 0.15
